Substrate: O=C=O
Experiment: protein film electrochemistry, KM for CO2 reduction at -560 mV
Type: biochemical, Carboxydothermus hydrogenoformans
Conditions: [Ni-4Fe-4S] C-cluster active site C-cluster

B1: CODH IICh (Carboxydothermus hydrogenoformans Z-2901) (protein)
chain: AKQNLKSTDRAVQQMLDKAKREGIQTVWDRYEAMKPQCGFGETGLCCRHCLQGPCRINPFGDEPKVGICGATAEVIVARGLDRSIAAGAAGHSGHAKHLAHTLKKAVQGKAASYMIKDRTKLHSIAKRLGIPTEGQKDEDIALEVAKAALADFHEKDTPVLWVTTVLPPSRVKVLSAHGLIPAGIDHEIAEIMHRTSMGCDADAQNLLLGGLRCSLADLAGCYMGTDLADILFGTPAPVVTESNLGVLKADAVNVAVHGHNPVLSDIIVSVSKEMENEARAAGATGINVVGICCTGNEVLMRHGIPACTHSVSQEMAMITGALDAMILDYQCIQPSVATIAECTGTTVITTMEMSKITGATHVNFAEEAAVENAKQILRLAIDTFKRRKGKPVEIPNIKTKVVAGFSTEAIINALSKLNANDPLKPLIDNVVNGNIRGVCLFAGCNNVKVPQDQNFTTIARKLLKQNVLVVATGCGAGALMRHGFMDPANVDELCGDGLKAVLTAIGEANGLGGPLPPVLHMGSCVDNSRAVALVAALANRLGVDLDRLPVVASAAEAMHEKAVAIGTWAVTIGLPTHIGVLPPITGSLPVTQILTSSVKDITGGYFIVELDPETAADKLLAAINERRAGLGLPW
B1 showed a Km of 8.0 ± 1.6 mM.

— paper PMC3955222
